± gives the half width of the 95% confidence interval.
What was measured:
[1] = folding stability dG unfold from trypsin proteolysis; higher = more stable
Summary of the method: (§1)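 How resistant each design was to proteolysis was captured as K50, inferred by Bayesian fitting of sequencing counts. Unfolding free energy was then derived relative to a sequence-predicted unfolded-state K50 and a shared folded-state K50, per protease or combined. Digestion used trypsin and chymotrypsin at 11 threefold-diluted concentrations plus a no-protease condition, on mini-proteins under 80 residues without cysteine in a PA-tagged cDNA display construct. Designs were kept only when AlphaFold2 dimer inter-PAE was above 15.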

[2] = folding stability dG unfold (combined trypsin and chymotrypsin); higher = more stable
Summary of the method: as §1

[3] = folding stability dG unfold from chymotrypsin proteolysis; higher = more stable
Summary of the method: as §1

STAEELATYIAKTIQKRFPPGYRITDVRIERNPNGYVELPFTIEPPNGRPWTVEIWIDADNGEIEIEIQWSA [r9_219_TrROS]
folding stability dG unfold [1]: 2.47 ± 0.06 kcal/mol | folding stability dG unfold [2]: 2.92 ± 0.068 kcal/mol | folding stability dG unfold [3]: 3.183 ± 0.017 kcal/mol

SAGGSAGGSAGDNKPKPIKIRIESYYPNGKKQEHDFEVPDPEDLDELAKTNPGYKIDEIESAGGSAGGSAGG [r11_802_TrROS]
folding stability dG unfold [1]: -0.258 ± 0.057 kcal/mol | folding stability dG unfold [2]: 0.478 ± 0.12 kcal/mol | folding stability dG unfold [3]: 0.821 ± 0.056 kcal/mol

SASMIIDPVSSEEEIEKLVKEAIEAGIGGEGLIVLRSDGKVYRITIEPGTGKVKKEEVMSPEELAAKLGSAG [r14_913_JUSTAS]
folding stability dG unfold [1]: 1.75 ± 0.053 kcal/mol | folding stability dG unfold [2]: 2.12 ± 0.16 kcal/mol | folding stability dG unfold [3]: 2.11 ± 0.051 kcal/mol

SAGGKKVKVEKVATFELEDGSKITITTVTLPNGEKLVLIEITNPNGEKKTIVVSYEDLKEVLEALKKSAGGS [r16_588_TrROS_Hall]
folding stability dG unfold [1]: 2.51 ± 0.086 kcal/mol | folding stability dG unfold [2]: 2.65 ± 0.28 kcal/mol | folding stability dG unfold [3]: 2.7 ± 0.16 kcal/mol

SAGGSAGGSAGDNWVIRIWWPNGKEQVFPGNLEDLLERIPPDNKDMKVEIFDPDDGKEIWSAGGSAGGSAGG [r11_353_TrROS]
folding stability dG unfold [1]: 1.09 ± 0.043 kcal/mol | folding stability dG unfold [2]: 1.1 ± 0.17 kcal/mol | folding stability dG unfold [3]: 1.01 ± 0.17 kcal/mol

SAGGMVLVRFDSLEEAREHAELLEELGYEVELLPTEDYVLLLVRPLPLPPPTPEELAEALRNPGSALASAGG [r13_8_TrMRF]
folding stability dG unfold [1]: 2.33 ± 0.062 kcal/mol | folding stability dG unfold [2]: 2.53 ± 0.066 kcal/mol | folding stability dG unfold [3]: 2.671 ± 0.014 kcal/mol

SAGGSAEFKIEAEVLSKEVNPETGKPVVKVKIKIEKYNPETGKKEEKEIELELSEEELEKLLKELGSAGGSA [r2_357_TrMRF]
folding stability dG unfold [1]: 3.61 ± 0.23 kcal/mol | folding stability dG unfold [2]: 3.13 ± 0.13 kcal/mol | folding stability dG unfold [3]: 2.93 ± 0.08 kcal/mol

SAGHQIVKRLARHMQEQGYPIEVDVTVEPYPDDGWVEITIDIEMQNEDGKWQPIGPITIYIPKEDANKLSAG [r5_413_TrROS]
folding stability dG unfold [1]: 0.914 ± 0.07 kcal/mol | folding stability dG unfold [2]: 1.34 ± 0.17 kcal/mol | folding stability dG unfold [3]: 1.44 ± 0.11 kcal/mol

SAGGSAGGSAGGSEEKLKKMKPKKVATYKVKTVTYKKTKDGTWEPTKVEEVEITVYALPSAGGSAGGSAGGS [r4_288_TrROS_Hall]
folding stability dG unfold [1]: 2.44 ± 0.07 kcal/mol | folding stability dG unfold [2]: 3.28 ± 0.3 kcal/mol | folding stability dG unfold [3]: 4.04 ± 0.072 kcal/mol

SAGGSAGGMKVTISSKGLPATITYYDPRNGTSTTVPINGDPEAAVAALKEATGLDVTDVTVTVESAGGSAGG [r6_763_JUSTAS]
folding stability dG unfold [1]: 0.71 ± 0.04 kcal/mol | folding stability dG unfold [2]: 0.617 ± 0.12 kcal/mol | folding stability dG unfold [3]: 0.52 ± 0.11 kcal/mol

SAGGSAGGSAGDKRITIWFPVPPGQPPPTLEEIADELPGFEDVDIDVEMYPNGYYRITIESAGGSAGGSAGG [r17_205_TrROS]
folding stability dG unfold [1]: 0.812 ± 0.047 kcal/mol | folding stability dG unfold [2]: 0.966 ± 0.078 kcal/mol | folding stability dG unfold [3]: 1.05 ± 0.14 kcal/mol

SAGGSAGGSESKITILVLDEETQELYLIEVTLKYNPETGELETEMKIEKITLKPGEKLDLKDLSAGGSAGGS [r12_700_TrROS_Hall]
folding stability dG unfold [1]: 2.43 ± 0.2 kcal/mol | folding stability dG unfold [2]: 2.94 ± 0.2 kcal/mol | folding stability dG unfold [3]: 3.28 ± 0.13 kcal/mol

SAGGSAGGSPEAVVVQTPDGRWLVFLRGPDGSVRPIVVPAGRPEALREVAEELGLTVENLDPVSAGGSAGGS [r12_891_TrMRF]
folding stability dG unfold [1]: 1.83 ± 0.052 kcal/mol | folding stability dG unfold [2]: 2 ± 0.065 kcal/mol | folding stability dG unfold [3]: 2.1 ± 0.04 kcal/mol

SAGGSAGGSAGGKVTKVILYPLPGGKVRLIIYGDDGKPYFFETSFEDLKNFPNIPFIILPSAGGSAGGSAGG [r7_238_TrMRF]
folding stability dG unfold [1]: 2.19 ± 0.069 kcal/mol | folding stability dG unfold [2]: 2.11 ± 0.073 kcal/mol | folding stability dG unfold [3]: 2.27 ± 0.049 kcal/mol

SAGGSAGGSAMIGGGEDGNLVFLVTEDGKPLVLVAPPDEIKKILEELGIKDVVVVKPLPELSAGGSAGGSAG [r3_141_TrMRF]
folding stability dG unfold [1]: 1.18 ± 0.043 kcal/mol | folding stability dG unfold [2]: 0.762 ± 0.1 kcal/mol | folding stability dG unfold [3]: -0.0844 ± 0.13 kcal/mol

SAGGSAGGMKITTPDGKEITFPPKDETVTLTITVKLEDGTTVTIEIKFNKNGEIVEIKISIEKKSAGGSAGG [r6_530_TrROS_Hall]
folding stability dG unfold [1]: 1.52 ± 0.07 kcal/mol | folding stability dG unfold [2]: 1.99 ± 0.17 kcal/mol | folding stability dG unfold [3]: 2.43 ± 0.061 kcal/mol

SAGKFKIVKVEIKDGKITITVKNEKTGELVKKEITFDKKTKKLKIKLYNKNGKLIKEETKTLSLEELKKSAG [r5_308_TrROS_Hall]
folding stability dG unfold [1]: 2.06 ± 0.093 kcal/mol | folding stability dG unfold [2]: 2.49 ± 0.096 kcal/mol | folding stability dG unfold [3]: 2.66 ± 0.071 kcal/mol

SAGGSAGGSAGGMKIVFLGKKALIENENGEVTEIPVGSLEEFEKLAEAFPDYEAVPAVPSAGGSAGGSAGGS [r10_1211_TrMRF]
folding stability dG unfold [1]: 0.888 ± 0.025 kcal/mol | folding stability dG unfold [2]: 1.31 ± 0.051 kcal/mol | folding stability dG unfold [3]: 1.5 ± 0.029 kcal/mol

SAGGSAGGGRRLLIEADSEELRELLEALPPEELKNVRVYGPGGVEFPAGEIEKYKYGPLLIEVPSAGGSAGG [r6_428_TrMRF]
folding stability dG unfold [1]: 0.174 ± 0.099 kcal/mol | folding stability dG unfold [2]: 0.669 ± 0.1 kcal/mol | folding stability dG unfold [3]: 0.756 ± 0.18 kcal/mol

SAGGSAGGSAGGKPITIKLEETGETATIDEDNGIITITNKDGSKYQITFKDGKLIIKKISAGGSAGGSAGGS [r10_568_TrROS_Hall]
folding stability dG unfold [1]: 1.99 ± 0.076 kcal/mol | folding stability dG unfold [2]: 2.79 ± 0.097 kcal/mol | folding stability dG unfold [3]: 3.1 ± 0.056 kcal/mol

SAGSMTPEEIRERIEALAEEVGEPPVRVLLKGPSGPLYELDVRFTPEHLEEARRALGVDVVEVEPVPESAGG [r19_50_JUSTAS]
folding stability dG unfold [1]: 0.297 ± 0.068 kcal/mol | folding stability dG unfold [2]: -0.00549 ± 0.17 kcal/mol | folding stability dG unfold [3]: -0.512 ± 0.32 kcal/mol

Source: the supplement of paper PMC12764529
